According to patent US20160297851A1 (Scripps Research, published 2016):
Substitutions are numbered along the chain they refer to. Read-outs that look alike come from different tables or passages of the source.

How the values were obtained:
[1] = molecular target: T1, P. aeruginosa PAO1 SPase (LepB), wild type, in the bacteria (Pseudomonas aeruginosa, UniProt Q9I5G7 1-284); assay: cell-based or functional assay
T1 sequence: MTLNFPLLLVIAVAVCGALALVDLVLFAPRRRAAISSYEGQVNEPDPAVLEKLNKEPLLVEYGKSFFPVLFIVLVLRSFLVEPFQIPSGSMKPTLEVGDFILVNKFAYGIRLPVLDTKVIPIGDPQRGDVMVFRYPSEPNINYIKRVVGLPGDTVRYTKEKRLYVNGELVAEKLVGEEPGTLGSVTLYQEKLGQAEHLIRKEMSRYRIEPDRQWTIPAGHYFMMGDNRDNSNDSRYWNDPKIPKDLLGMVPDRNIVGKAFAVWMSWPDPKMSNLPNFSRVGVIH

[2] = molecular target: T2, Staphylococcus epidermidis signal peptidase IB S29P (strain PAS9001) (Staphylococcus epidermidis); assay: cell-based or functional assay
T2 chain: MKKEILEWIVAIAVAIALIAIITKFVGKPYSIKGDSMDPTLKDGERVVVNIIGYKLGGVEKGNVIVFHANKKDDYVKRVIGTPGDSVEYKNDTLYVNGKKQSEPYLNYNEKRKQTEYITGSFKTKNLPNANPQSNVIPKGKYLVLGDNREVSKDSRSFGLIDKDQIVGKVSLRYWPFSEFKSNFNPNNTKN

[3] = molecular target: T3, Staphylococcus epidermidis RP62A signal peptidase IB, wild type (Staphylococcus epidermidis); assay: cell-based or functional assay
T3 chain: T2 chain with P29S

[4] = molecular target: T4, Staphylococcus epidermidis signal peptidase IB S31P (strain PAS9002) (Staphylococcus epidermidis); assay: cell-based or functional assay
T4 chain: T2 chain with P29S, S31P

[5] = molecular target: T5, S. aureus SPase (SpsB) P29S, strain PAS8001, in the bacteria (Staphylococcus aureus); assay: cell-based or functional assay
[6] = molecular target: T6, P. aeruginosa SPase (LepB) P84S, strain PAS2006, in the bacteria (Pseudomonas aeruginosa, UniProt Q9I5G7 1-284); assay: cell-based or functional assay
T6 sequence: T1 sequence

[7] = molecular target: T7, S. aureus NCTC 8325 SPase (SpsB), wild type, in the bacteria (Staphylococcus aureus); assay: cell-based or functional assay
[8] = molecular target: T8, E. coli MG1655 SPase (LepB), wild type, in the bacteria (Escherichia coli, UniProt P00803 1-324); assay: cell-based or functional assay
[9] = molecular target: E. coli SPase (LepB) P84S, strain PAS0232, in the bacteria (Escherichia coli, UniProt P00803 1-324); assay: cell-based or functional assay
[10] = molecular target: T2, Staphylococcus epidermidis signal …; assay: cell-based or functional assay
[11] = molecular target: T4, Staphylococcus epidermidis signal …; assay: cell-based or functional assay
[12] = molecular target: T9, detergent-solubilized full-length wild type E. coli SPase (His6x-tagged) (Escherichia coli, UniProt P00803 1-324); assay: steady-state increase of arylomycin fluorescence (ex 320 nm, em 410 nm) on binding detergent-solubilised full-length wild type E. coli SPase
T9 construct: Plasmid pET23-lepB came from Dr. Mark Paetzel; also called full-length Pro-variant of E. coli SPase; full length His-tagged E. coli SPase; not shown: His6x tag of plasmid pET23-lepB

[13] = molecular target: T9, detergent-solubilized full-length wild …; assay: steady-state binding by increase of arylomycin fluorescence; detergent-solubilized full-length His-tagged SPase
[14] = molecular target: T10, P84S variant of detergent-solubilized full-length E. coli SPase (His6x-tagged) (Escherichia coli, UniProt P00803 1-324); assay: as above
[15] = molecular target: T1, P. aeruginosa PAO1 SPase (LepB), wild …; assay: cell-based or functional assay; remark: listed apart in the source
[16] = molecular target: T2, Staphylococcus epidermidis signal …; assay: cell-based or functional assay
[17] = molecular target: T3, Staphylococcus epidermidis RP62A signal …; assay: cell-based or functional assay
[18] = molecular target: T5, S. aureus SPase (SpsB) P29S, strain …; assay: cell-based or functional assay; remark: listed apart in the source
[19] = molecular target: T7, S. aureus NCTC 8325 SPase (SpsB), wild …; assay: cell-based or functional assay; remark: listed apart in the source
[20] = molecular target: T8, E. coli MG1655 SPase (LepB), wild type, …; assay: cell-based or functional assay; remark: listed apart in the source
[21] = molecular target: E. coli MG1655 SPase (LepB) P84L, in the bacteria (E. coli, UniProt P00803 1-324); assay: cell-based or functional assay
[22] = molecular target: T10, P84S variant of detergent-solubilized …; assay: steady-state increase of arylomycin fluorescence (ex 320 nm, em 410 nm) on binding detergent-solubilised full-length E. coli SPase P84S

B1: arylomycin C16 (peptide)
peptide: SAGXAY
modifications: C16 fatty acyl (palmitoyl) tail on the N-terminus of N-methyl-D-Ser2; D-Ala3; N-methyl-4-hydroxyphenylglycine (MeHpg) at 5, written X; biaryl bridge between MeHpg5 and Tyr7 (macrocycle MeHpg5-Ala6-Tyr7); free C-terminal carboxyl; the filing counts the lipid tail as position 1
notes: Synthetic lipohexapeptide derived from the natural product arylomycin A2, with a straight C16 fatty acid tail; It has non-standard and D-residues and is macrocyclic, so it is a borderline case of 'peptide'; also called arylomycin A-C16; Arylomycin A2 C16
**Q.** For B1, which “MIC” value [1] is on record?
**A.** Its value is over 128 µg/mL.

**Q.** And the “MIC” value [2]?
**A.** Its value is 8 µg/mL.

**Q.** And the “MIC” value [3]?
**A.** The value was 0.25 µg/mL.

**Q.** And the “MIC” value [4]?
**A.** Its value is over 128 µg/mL.

**Q.** What about the “MIC” value [5] of the same binder?
**A.** The value was 2 µg/mL.

**Q.** And the “MIC” value [6]?
**A.** Its value is 8 µg/mL.

**Q.** And the “MIC” value [7]?
**A.** Its value is over 128 µg/mL.

**Q.** And the “MIC” value [8]?
**A.** Its value is over 128 µg/mL.

**Q.** What about the “MIC” value [9] of the same binder?
**A.** Its value is 2 µg/mL.

**Q.** And the “fold elevation of MIC compared to the wild type strain” value [10]?
**A.** The value was 32 fold.

**Q.** And the “fold elevation of MIC compared to the wild type strain” value [11]?
**A.** Its value is over 256 fold.

**Q.** What about the “EC50 (read off the curve)” value [12] of the same binder?
**A.** The value was about 100 nM.

**Q.** And the Kd [13]?
**A.** The Kd was 60 nM.

**Q.** And the Kd [14]?
**A.** Its Kd is 5.7 nM.

**Q.** What about the MIC [15] of the same binder?
**A.** The MIC was over 64 µg/mL.

**Q.** And the MIC [16]?
**A.** The MIC was 8 µg/mL.

**Q.** What about the MIC [17] of the same binder?
**A.** Its MIC is 0.5 µg/mL.

**Q.** And the MIC [18]?
**A.** Its MIC is 2 µg/mL.

**Q.** And the MIC [19]?
**A.** Its MIC is over 64 µg/mL.

**Q.** What about the MIC [20] of the same binder?
**A.** The MIC was over 64 µg/mL.

**Q.** And the MIC [21]?
**A.** The MIC was 0.5 µg/mL.

**Q.** And the “EC50 (read off the curve)” value [22]?
**A.** The value was about 10 nM.

**Q.** What about the Kd [22] of the same binder?
**A.** Its Kd is 5.73 nM.
